What was measured:
[1] = Appearance of 1.5% peptide solutions with various salts at room temperature; format: physicochemical; conditions: for Appearance: room temperature
Procedure: The effect of salt ionic strength level on the properties of peptide solutions was evaluated to identify optimized salt ionic strength levels for the peptides as described herein. Increasing the salt ionic strength level of PuraMatrix® (SEQ ID NO:1) and other peptides may generally improve its function and mechanical strength for various clinical applications. To adjust the salt ionic strength of the peptide solutions by way of example, various salt buffer solutions including NaCl, KCl, MgCl2, CaCl2 and DPBS (10×) were added to 2 mL of 1.5% peptide solutions.

[2] = Salt ionic strength plus pH adjustment: appearance and rheological properties; format: physicochemical
From the text: In accordance with one or more embodiments, IEIK13 (SEQ ID NO:2), KLD12 (SEQ ID NO:3), and PuraMatrix® (SEQ ID NO:1) may be dissolved both in salt buffer such as NaCl and at an elevated pH level adjusted with alkali salt buffer such as NaOH to keep their salt ionic strength under their critical salt points as well as their pH level to about 2.5˜4.0, so that they may have stiffer properties. With respect to PuraMatrix® (SEQ ID NO:1), […] and IEIK13 (SEQ ID NO:2), the peptide solutions are still clear with 0.9% NaCl (ionic strength: 0.15 M) at pH 3.4 adjusted with NaOH. The rheological property of PuraMatrix® (SEQ ID NO:1) with 0.9% NaCl (ionic strength: 0.15 M) at pH 3.4 was stiffer than those of PuraMatrix® (SEQ ID NO:1) control and PuraMatrix® (SEQ ID NO:1) with only NaCl 0.9%. The effect of salt ionic strength and pH adjustment on the rheological properties of PuraMatrix® (SEQ ID NO:1) 2.5% solution are shown in FIG. 20. Frequency sweep tests were performed from 1 rad/sec to 10 rad/sec at 1 Pa and the storage modulus at 1 rad/sec was selected for data.

Question: For “Arg-Ala-Asp-Ala-Arg-Ala-Asp-Ala-Arg-Ala-Asp-Ala-Arg-Ala-Asp-Ala [PuraMatrix ®]”, which “critical salt ionic strengths at which peptides become cloudy” value [1] is on record?
Answer: 0.9˜1.2 M

Question: What about the Appearance ([1]; CaCl2 0 M, ionic strength 0 M, conc. 1.5%) of the same substance?
Answer: Clear, thick gel

Question: What about the Appearance ([1]; CaCl2 0.05 M, ionic strength 0.15 M, conc. 1.48%) of the same substance?
Answer: Clear, thick, stiffer gel

Question: What about the Appearance ([1]; CaCl2 0.1 M, ionic strength 0.3 M, conc. 1.45%) of the same substance?
Answer: Clear, thick, stiffer gel

Question: And the Appearance ([1]; CaCl2 0.15 M, ionic strength 0.45 M, conc. 1.43%)?
Answer: Clear, thick, stiffer gel

Question: And the Appearance ([1]; CaCl2 0.2 M, ionic strength 0.6 M, conc. 1.4%)?
Answer: Clear, thick, stiffer gel

Question: What about the Appearance ([1]; CaCl2 0.25 M, ionic strength 0.75 M, conc. 1.38%) of the same substance?
Answer: Clear, thick, stiffer gel

Question: What about the Appearance ([1]; CaCl2 0.3 M, ionic strength 0.9 M, conc. 1.35%) of the same substance?
Answer: Clear, thick, stiffer gel

Question: What about the Appearance ([1]; CaCl2 0.35 M, ionic strength 1.05 M, conc. 1.32%) of the same substance?
Answer: Clear, thick, stiffer gel

Question: What about the Appearance ([1]; CaCl2 0.383 M, ionic strength 1.15 M, conc. 1.31%) of the same substance?
Answer: Clear, thick, stiffer gel

Question: What about the Appearance ([1]; CaCl2 0.4 M, ionic strength 1.2 M, conc. 1.3%) of the same substance?
Answer: Slightly cloudy, thick, stiffer gel

Question: And the Appearance ([1]; CaCl2 0.417 M, ionic strength 1.25 M, conc. 1.29%)?
Answer: Slightly cloudy, brittle gel

Question: And the Appearance ([1]; CaCl2 0.433 M, ionic strength 1.3 M, conc. 1.28%)?
Answer: Cloudy, phase-separated

Question: And the Appearance ([1]; DPBS (pH 3.2) 0 M, ionic strength 0 M, conc. 1.5%)?
Answer: Clear, thick gel

Question: And the Appearance ([1]; DPBS (pH 3.2) 0.15 M, ionic strength 0.15 M, conc. 1.35%)?
Answer: Clear, thick, stiffer gel

Question: What about the Appearance ([1]; DPBS (pH 3.2) 0.3 M, ionic strength 0.3 M, conc. 1.2%) of the same substance?
Answer: Clear, thick, stiffer gel

Question: What about the Appearance ([1]; DPBS (pH 3.2) 0.45 M, ionic strength 0.45 M, conc. 1.05%) of the same substance?
Answer: Clear, thick, stiffer gel

Question: What about the Appearance ([1]; DPBS (pH 3.2) 0.6 M, ionic strength 0.6 M, conc. 0.9%) of the same substance?
Answer: Clear, thick, stiffer gel

Question: What about the Appearance ([1]; DPBS (pH 3.2) 0.75 M, ionic strength 0.75 M, conc. 0.75%) of the same substance?
Answer: Clear, thick, stiffer gel

Question: What about the Appearance ([1]; DPBS (pH 3.2) 0.9 M, ionic strength 0.9 M, conc. 0.6%) of the same substance?
Answer: Clear, thick, stiffer gel

Question: What about the Appearance ([1]; DPBS (pH 3.2) 0.95 M, ionic strength 0.95 M, conc. 0.55%) of the same substance?
Answer: Slightly cloudy, brittle gel

Question: And the Appearance ([1]; DPBS (pH 3.2) 1.0 M, ionic strength 1.0 M, conc. 0.5%)?
Answer: Cloudy, phase-separated

Question: What about the Appearance ([1]; KCl 0 M, ionic strength 0 M, conc. 1.5%) of the same substance?
Answer: Clear, thick gel

Question: What about the Appearance ([1]; KCl 0.15 M, ionic strength 0.15 M, conc. 1.43%) of the same substance?
Answer: Clear, thick, stiffer gel

Question: And the Appearance ([1]; KCl 0.3 M, ionic strength 0.3 M, conc. 1.35%)?
Answer: Clear, thick, stiffer gel

Question: What about the Appearance ([1]; KCl 0.45 M, ionic strength 0.45 M, conc. 1.27%) of the same substance?
Answer: Clear, thick, stiffer gel

Question: What about the Appearance ([1]; KCl 0.6 M, ionic strength 0.6 M, conc. 1.2%) of the same substance?
Answer: Clear, thick, stiffer gel

Question: And the Appearance ([1]; KCl 0.75 M, ionic strength 0.75 M, conc. 1.13%)?
Answer: Clear, thick, stiffer gel

Question: And the Appearance ([1]; KCl 0.9 M, ionic strength 0.9 M, conc. 1.05%)?
Answer: Clear, thick, stiffer gel

Question: What about the Appearance ([1]; KCl 0.95 M, ionic strength 0.95 M, conc. 1.03%) of the same substance?
Answer: Clear, thick, stiffer gel

Question: And the Appearance ([1]; KCl 1.0 M, ionic strength 1.0 M, conc. 1.0%)?
Answer: Clear, thick, stiffer gel

Question: What about the Appearance ([1]; KCl 1.05 M, ionic strength 1.05 M, conc. 0.98%) of the same substance?
Answer: Slightly cloudy, thick, stiffer gel

Question: And the Appearance ([1]; KCl 1.1 M, ionic strength 1.1 M, conc. 0.95%)?
Answer: Slightly cloudy, brittle gel

Question: What about the Appearance ([1]; KCl 1.15 M, ionic strength 1.15 M, conc. 0.93%) of the same substance?
Answer: Cloudy, phase-separated

Question: What about the Appearance ([1]; MgCl2 0 M, ionic strength 0 M, conc. 1.5%) of the same substance?
Answer: Clear, thick gel

Question: What about the Appearance ([1]; MgCl2 0.05 M, ionic strength 0.15 M, conc. 1.48%) of the same substance?
Answer: Clear, thick, stiffer gel

Question: What about the Appearance ([1]; MgCl2 0.1 M, ionic strength 0.3 M, conc. 1.45%) of the same substance?
Answer: Clear, thick, stiffer gel

Question: What about the Appearance ([1]; MgCl2 0.15 M, ionic strength 0.45 M, conc. 1.43%) of the same substance?
Answer: Clear, thick, stiffer gel

Question: And the Appearance ([1]; MgCl2 0.2 M, ionic strength 0.6 M, conc. 1.4%)?
Answer: Clear, thick, stiffer gel

Question: What about the Appearance ([1]; MgCl2 0.25 M, ionic strength 0.75 M, conc. 1.38%) of the same substance?
Answer: Clear, thick, stiffer gel

Question: What about the Appearance ([1]; MgCl2 0.3 M, ionic strength 0.9 M, conc. 1.35%) of the same substance?
Answer: Clear, thick, stiffer gel

Question: And the Appearance ([1]; MgCl2 0.35 M, ionic strength 1.05 M, conc. 1.32%)?
Answer: Clear, thick, stiffer gel

Question: And the Appearance ([1]; MgCl2 0.383 M, ionic strength 1.15 M, conc. 1.31%)?
Answer: Clear, thick, stiffer gel

Question: What about the Appearance ([1]; MgCl2 0.4 M, ionic strength 1.2 M, conc. 1.3%) of the same substance?
Answer: Slightly cloudy, thick, stiffer gel

Question: And the Appearance ([1]; MgCl2 0.417 M, ionic strength 1.25 M, conc. 1.29%)?
Answer: Slightly cloudy, brittle gel

Question: What about the Appearance ([1]; MgCl2 0.433 M, ionic strength 1.3 M, conc. 1.28%) of the same substance?
Answer: Cloudy, phase-separated

Question: And the Appearance ([1]; NaCl 0 M, ionic strength 0 M, conc. 1.5%)?
Answer: Clear, thick gel

Question: And the Appearance ([1]; NaCl 0.15 M, ionic strength 0.15 M, conc. 1.43%)?
Answer: Clear, thick, stiffer gel

Question: What about the Appearance ([1]; NaCl 0.3 M, ionic strength 0.3 M, conc. 1.35%) of the same substance?
Answer: Clear, thick, stiffer gel

Question: What about the Appearance ([1]; NaCl 0.45 M, ionic strength 0.45 M, conc. 1.27%) of the same substance?
Answer: Clear, thick, stiffer gel

Question: And the Appearance ([1]; NaCl 0.6 M, ionic strength 0.6 M, conc. 1.2%)?
Answer: Clear, thick, stiffer gel

Question: What about the Appearance ([1]; NaCl 0.75 M, ionic strength 0.75 M, conc. 1.13%) of the same substance?
Answer: Clear, thick, stiffer gel

Question: What about the Appearance ([1]; NaCl 0.8 M, ionic strength 0.8 M, conc. 1.10%) of the same substance?
Answer: Clear, thick, stiffer gel

Question: And the Appearance ([1]; NaCl 0.85 M, ionic strength 0.85 M, conc. 1.08%)?
Answer: Clear, thick, stiffer gel

Question: What about the Appearance ([1]; NaCl 0.9 M, ionic strength 0.9 M, conc. 1.05%) of the same substance?
Answer: Slightly cloudy, brittle gel

Question: What about the Appearance ([1]; NaCl 0.95 M, ionic strength 0.95 M, conc. 1.03%) of the same substance?
Answer: Cloudy, phase-separated

Question: What about the Appearance ([1]; NaCl 1.0 M, ionic strength 1.0 M, conc. 1.0%) of the same substance?
Answer: Cloudy, phase-separated

Question: And the “salt ionic strength increase that did not change the clear color, while apparent stiffness increased” value ([1]; depending on different salts, 1.5% peptide solutions)?
Answer: 0.85˜1.15 M

Question: What about the “appearance of peptide solutions” value ([2]; 0.9% NaCl (ionic strength: 0.15 M) at pH 3.4 adjusted with NaOH) of the same substance?
Answer: still clear

Question: And the “rheological property versus control and versus only NaCl 0.9%” value ([2]; 2.5% solution, 0.9% NaCl (ionic strength: 0.15 M) at pH 3.4)?
Answer: stiffer

From US20220160939A1, “SELF-ASSEMBLING PEPTIDES AS BRONCHIAL OBSTRUCTION AGENTS” (3-D MATRIX, LTD., priority 2014, published 2022)
